Test results reported in patent US7629437.

Legend:
[1] = test system: Ac-Leu-Gly-Pro-Lys-ACC
[2] = test system: Ac-Leu-Gly-Pro-Lys-AMC
[3] = test system: Ac-Nle-Thr-Pro-Lys-ACC
[4] = test system: Ac-Nle-Thr-Pro-Lys-AMC
[5] = test system: Ac-PANK-ACC
[6] = test system: Ac-PRNK-ACC
[7] = test system: Ac-PRNR-ACC
[8] = test system: Ac-PRTK-ACC

Chain of Recombinant human βI tryptase (chain, as listed by the source): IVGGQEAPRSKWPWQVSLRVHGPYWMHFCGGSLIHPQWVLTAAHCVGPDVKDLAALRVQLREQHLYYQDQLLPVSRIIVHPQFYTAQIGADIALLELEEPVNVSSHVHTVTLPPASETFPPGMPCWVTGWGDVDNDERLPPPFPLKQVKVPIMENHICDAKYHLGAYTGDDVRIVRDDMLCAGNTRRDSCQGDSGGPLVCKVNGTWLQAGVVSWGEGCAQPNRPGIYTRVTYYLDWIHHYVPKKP

| Substance | Km [5] | kcat [5] | kcat/Km [5] | Km [6] | kcat [6] | kcat/Km [6] | preference (kcat/Km) over Ac-PRTK-ACC [6] | Km [7] | kcat [7] | kcat/Km [7] | Km [8] | kcat [8] | kcat/Km [8] | also measured |
| --- | --- | --- | --- | --- | --- | --- | --- | --- | --- | --- | --- | --- | --- | --- |
| Human thrombin | – | – | – | – | – | – | – | – | – | – | – | – | – | Km [1]: 195 µM; kcat [1]: 3.2 s⁻¹; kcat/Km [1]: 18000 M⁻¹ s⁻¹; Km [2]: 160 µM; kcat [2]: 2.3 s⁻¹; kcat/Km [2]: 15000 M⁻¹ s⁻¹; Km [3]: 125 µM; kcat [3]: 33.7 s⁻¹; kcat/Km [3]: 280000 M⁻¹ s⁻¹; Km [4]: 115 µM; kcat [4]: 31 s⁻¹; kcat/Km [4]: 260000 M⁻¹ s⁻¹ |
| Recombinant human βI tryptase | 110 µM | 20.3 s⁻¹ | 180000 M⁻¹ s⁻¹ | 8.9 µM | 16.8 s⁻¹ | 1.89e+06 M⁻¹ s⁻¹ | A minimal preference, approximately two-fold, for P2-asparagine over P2-threonine | 16.5 µM | 21.8 s⁻¹ | 1.31e+06 M⁻¹ s⁻¹ | 14.7 µM | 18.7 s⁻¹ | 1.27e+06 M⁻¹ s⁻¹ | – |
| Recombinant human βII tryptase | 133 µM | 19.1 s⁻¹ | 140000 M⁻¹ s⁻¹ | 14.5 µM | 17.8 s⁻¹ | 1.23e+06 M⁻¹ s⁻¹ | A minimal preference, approximately two-fold, for P2-asparagine over P2-threonine | 18.6 µM | 20.9 s⁻¹ | 1.12e+06 M⁻¹ s⁻¹ | 23.4 µM | 18.3 s⁻¹ | 780000 M⁻¹ s⁻¹ | – |
